Results published in the DeepSol protein solubility set.

Test: soluble on expression in E. coli; label from the status in PepcDB or PDB records

| Sequence | soluble on expression in E. coli |
| --- | --- |
| MGSDKIHHHHHHMAAPAGGGGSAVSVLAPNGRRHTVKVTPSTVLLQVLEDTCRRQDFNPSEYDLKFQRTVLDLSLQWRFANLPNNAKLEMVPVSRSREGPENIVRIAFQLDDGSRLQDAFCSRQTLWELLSHFAQTRERLQQLGEKTPVCVYMRNEVTGRAALQNTTLQSLGLTGGSATIRFVIKQCDTAGKQESIAVRSKAPGSPVSSLSADQASSSTLLPLNSGEFSRGDLNHEGDANTSGTGLEGGPKPTDAQTKQSTSEPASAPFVPFSGGGQRLGGPSASLRPLTSPSANSSKSFSGPGGPSKPKKPKPGEEPQQEPEPPVDRDPVVYHPDLEDLLQPWPAEVPDEFFEVTVDDVRRRLAQLKSERKRLEEAPLVTKAFREAQMKEKLERYPKVALRVLFPDRYILQGFFRPSETVGDLRDFVRSHLGNPELSFYLFIAPPKMVLDDHTLTLFQANLFPAALVHFGAEEPTGLYLEPGLLEHTVSPSTADVLVARCMSRASGSPPLLPAPDPVSLESEPIAEDGALGPPEPIQGTAQPVKRSLGKVPKWLKLPASKR | not soluble |
| MAHHHHHHMHPVPQAPYLSSPSPLFPNRGWCWQRPLRIFCPFFSAPLRAASSRRCHRPFLSIRFKKRCCNNPLLLGVVEAILPEPHSPAIPPVILRVFTPPS | not soluble |
| MTEHTAPTAPVADVCLLLEGTWPYVRGGVSSWVNQLILGLPDLTFSVFFIGGQKDAYGKRHYPIPDNVLHIEEHFLETAWSSPNPQTRQGSSETEKALRDLHRFFHYPETPDVEEGDALLDLLAEGRIGREDFLHSKASWEAITAGYERYCTDPSFVNYFWTLRSMQAPVFMLAEAARRMPRARMLHSISTGYAGLLGCILQRRWGCRYLLSEHGIYTKERKIDLAQANWIAENPDEQLSTGLDAEVSYIRRLWIRFFERVGLLTYRAANPIVALYEGNRQRQVLDGAEPRRTRVIPNGIDLDAWTGALERRPPGIPPVVGLVGRVVPIKDVKTFIRAMRGVVSAMPEAEGWIVGPEEEDPDYASECRSLVASLGLQDKVKFLGFRRIGEVLPQLGLMVLTSISEAQPLVILEAWAAGAPVVSSDVGSCRELIEGADAEDRALGRAGEVVAIADPQATSRAILALLRNPQRWQAAQAVGLQRVERYYTEALMLGRYRGLYREATEIA | not soluble |
| MSKKTLSTVNYQLSTDTMCLAIPGQVIEIREENGLKMGTVDISGALTKACLEYVPEIAIGQYTIVHAGFALKIIDEKEAAESLKLWDELIKSGAFDVDGELPPSPIQKPEA | not soluble |
| MQPYWAAIEADIERYLKKSITIRPPETVFGPMHHLTFAAPATAASTLCLAACELVGGDRSQAMAAAAAIHLVHAAAYVHEHLPLTDGSRPVSKPAIQHKYGPNVELLTGDGIVPFGFELLAGSVDPARTDDPDRILRVIIEISRAGGPEGMISGLHREEEIVDGNTSLDFIEYVCKKKYGEMHACGAACGAILGGAAEEEIQKLRNFGLYQGTLRGMMEMKNSHQLIDENIIGKLKELALEELGGFHGKNAELMSSLVAEPSLYAAHHHHHHHH | soluble |
| MSLVDLVTEAKSSGEGVTSPYSRTEHCENIHEYRCDTRVGVIGIDVSKEHLVTSKGRVRKFTNNEKGYEEILTMKPNIIVIEPTGVYSTRPCQYFKERGVKVLLVSLAMERKGRKGKENRFLRRRKTEGHHHHHH | not soluble |
| MDQENERNISRLWRAFRTVKEMVKDRGYFITQEEVELPLEDFKAKYCDSMGRPQRKMMSFQANPTEESISKFPDMGSLWVEFCDEPSVGVKTMKTFVIHIQEKNFQTGIFVYQNNITPSAMKLVPSIPPATIETFNEAALVVNITHHELVPKHIRLSSDEKRELLKRYRLKESQLPRIQRADPVALYLGLKRGEVVKIIRKSETSGRYASYRICM | soluble |
| MKKGSRHNFVVSQENWTLHRKGYQDQRRHQEKVKEAIRKNLPDLVSEENIIMSNGREVIKIPIRSLDEYKIRYNYDKNKHVGQGDGDSQVGDVIARDPSAGQQGPGKGQGAGDQPGEDYFEAEVSILELEELLFRELELPNLQQKEEDHLVVEHIEFNDIRKKGLMGNIDKRRTILSAIKRNALEGRPGLIPIYNDDLRFKTWNEVVRPESKAVVLAMMDTSGSMGRWEKYMARSFFFWMTRFLRTKYETVDIEFIAHHTEAKVVSEEDFFSKGESGGTICSSAYRKALELINEKYDPARYNIYPFHFSDGDNLTSDNARCLKLVHELMESSSMFGYGEVNQYSRHSTLMNAYKNLKDPRFRSYVLKEKGDVYRAMKTFFKKEEEAVSAAALEHHHHHH | soluble |
| EQALSDQLRFVEALTDCMPPPLYVRDVNGRMLSCNRSYLQSVGLSSEEVMNRTVLELPMENFETAPEFHRSYLMAMREGRTIEAVYPVALGGRERWIDHWIQPFRDSSGTIRGVICGWLDITEHRQLIDELEEAKNLADEASRAKTTFLATMSHEIRTPMNAVIGILELALKRAETGRVDRSSIEIAYASAKSLLELIGDILDIARIESGRLSLSPKRANLRELVESVARVFEGLARQKRLSLVLEIDSSINGDVLLDAMRFKQILSNLVSNAIKFTDEGSIRIRIDGRQVEPSLLQVNLCVEDTGIGISLGDQQQLFRPFAQVNRNLQNTEGTGLGLVISRSLCEMMGGRLVMSSELGQGTRIDVELRLQVLEPIVENVRAIPLGSRQARRLQVLVVDDHAVNRQILHQQLSFLGHDVEEAENGLSALNLWHGQPFDMVITDCHMPLMSGSDLARSIRQEERENGEEPVVIIGLTADAQPEEIERCIQAGMNECLIKPIGLDVLEERLLALGFAADELPVTIDAEPVAIPTAPRLYDLDSLHALTGGEPTMLRRLLDELLTSNRKDLETLEGLVQRQETGELAELAHRIKGAARVVRGEQLVESCRRLEDACLSPNASFAWVEECAVGVKLAILALDESLVEEC | not soluble |
| MGSDKIHHHHHHMALFEGYERRIDGINTVLKKYGMNSIEDAKKVCDEKGINVYDIVRSIQPICFENACWAYTLGAAIAIKNGCTSASDAAKNIGEGLQAFCIPGSVADDRKVGLGHGNLGAMLLSEDAKCFAFLAGHESFAAAEGAIGIAKSANKVRKEPLRVILNGLGKDAAQIISRINGFTYVQTQFDYYTGELKIVKETAYSKGERAEVRCFGADDVREGVAIMHHEGVDVSITGNSTNPTRFQHPVAGTYKKECFEMGKKYFSVASGGGTGRTLHPDNMAAGPASYGMTDTMGRMHSDAQFAGSSSVPAHVDMMGLIGMGNNPMVGATVAVAVAIEEAMK | not soluble |
| MSADFEQLVAQFERFQARMTRVEQQFAGVDDMRQRLAELEVAATSADRSVTVVAGPSGAILDIRLTEQAVRKPAHALAGELMSTLRKAVAEAARRQAGIVDGALGEAFGDDLDLTEQVLETQAELFGMSKEELRAVTAEEATTAPQQGPPAPPARPTPPSPGQPQGGPVPGRPEPGQARTGGPQPGRPHSGRQQSGQPQPGRPQSGQPQPGRPQSGQPQPGKSQPGTSQPGQARPGQSGPAQRPQGGEPQQEDFSERNFMKDDWKQSGSKAQPPGPGGKQDDRFLNLYDDEDGR | not soluble |
| EITPLIFQKQTTEEVQNLKPYTALQLEGRDIYIREGCNVCHSQMVRPFRSETERYGHYSVAGESVWEHPFLWGSKRTGPDLARVGGRYSDEWHRVHLLNPRELVPESNMPAFPWLAKNTLDGKYTQQKMTLFRDKFGVPYTDEQIANATKDVEGKTEMDAIIAYLQSLGHAMK | not soluble |
| MNSRQQSILQMVVDKGQMSVAELAKITGVSEVTIRQDLNTLEKQSYLRRAHGFAVSLESDDVETRMMTNYTLKRRLAEFAASLVSPGESVFIENGSSNALLARTLAEQKDVTIITVSSYIAHLLKETPCEVILLGGIYQKKSESMVGPLTRQFIHQVHFSKAFIGIDGWQADTGFTGRDMMRSDVVNAVLEKGSEAIVLTDSSKFGCVHPYPLGPLSRFHRVITDSKISASDQMQLEHAGLLVNVIGSSVLEHHHHHH | soluble |
| MSLKITTEQVCEALDTWVCRPGMTQEQATILITEAFWALKERPNIDVQRVTFNDGEVDQRALGVNRVKIFERWKAIDTRDKRDKFTALIPAIMEAIRISDFRLYCEITDGKSITYMIAGLNKEYGDVVESGLLFADPVVVERETDELIEKAIAFKHAYRQQYQYYFADKQMSARGAYEYRCTTMGEGHHHHHH | soluble |
| MFDVVAVGELLIDFLPAGTNENGMPLFSSNPGGAPANVLAMLSKLGAKTAFIGKVGKDGFGQFLKATLDNAGIDTSNLLMSSSEMTTLAFVHLNEKGDRSFSFYRKHCADVSLDAGELDKDLLRTCHFLHFGAVSLTDEPSRTATLEAARIAKEAGAIISYDPNYRPALWSNEHEARKYMLKAVEYADLVKVSEEELWLLAESEDFSKGAHKLLAMGPSVVFVTCGEKGSYVFTGSCKANHCGYDVKVVDTTGAGDAFVGAMLWQLRGMSLEEISQICEQKWGELLAFSNAAGTIVATKKGAIPAMPDLDTINTFMRQFLEEK | soluble |
| MAHHHHHHMPNDTLQVKLSQDSLFFPLPFTNATIDNVVQVKNMLPVVQGDPKANVISFKILSRVQNRYSVHPPVGFIGAGEHATIIFSFNPEHVKMAKNPEERELPTEATKDAIHVDFAVVDAPSVQTALAHWVPGSKETKASWEVVADASRFWKQRGQVKENSPITMRYKLRCVFATRNNVPDSLVMCMKEEGGCCKLITDGAAPLPRTRPPMTSSTQPQNTAPPEAPPHRYSESQRTTPTTRSPRSDACCTPCAIGPPGIFTMGPGAAAAASAPSASPPSSAPTQKSKTSAGITCGDITLKSIAEEVLNYKLSYRAVGVLLFLTLLCGLLDQSNLLTWLIAKQ | not soluble |
| MLLQEELEQRTVSVSIQAAKLSGRVLRAAIAAVLQKMEQERTMPKVGRNSMKRLTYKDPGANTIEVSGRIRSFERYARKHQVRYHIEKELGTDPPKWTVYFKANQADALTAAFKEYTKKDLTRSTRPSLLIQLHKFKELAQSLGRDRVKNKEHGGPER | not soluble |
| LFNYKEGDSFFIRGPYGNGFDVSLYEGREIVVVAGGSALAPVRGIVEYFYNNKEKCEKFKLIVGFKSPKDILFADDLKRWSKKLDILVTVDGAEEGYSGNVGLVTKYIPELDMKDINNTSIVVVGPPMMMKFTVEEFLKRDLDEKNIWV | not soluble |
| GPGSMSTLKEVNGRLNTQPFVSGFSPSSEDARIFNEMFGSNVNVIQWVARMASYYQAERDEILNAGTEKKATEPAKKAAAPAPAAAAAAEEEDDIDLFGETTEEEKAALEAKKAKDAEKKKAKKEVIAKSSILFDIKAWDDTIDLEALAQKLHAIQRDGLIWGDHKLVPVAFGVKKLQQLIVIEDDKVSGDDLEEMVMGFEDEVQSMDIVAWNKI | soluble |
| MRKSRLSQHKQNKLIELFVAGVTARTASKLVNVNKNTATITFIDYAYSFIKQAHIWKCLKAKLKPMKAISAVLEKANVVAVLQGKSQYSGFSNEMQGLYRRCS | not soluble |
| MNNEFLQTEEDIVRMLRTVYDPEIPVNVYDLGLIYNVDVGADGFVTVTMTLTAPNCPAADFIIEDVRMKVESVKGVKGVKIDLTFEPEWNKDMMSEEAMLELGFL | not soluble |
| MCIGMDIRDFFAQSAGRWFSQRTSHHLAFKQTESGKSQLTIELLSVDDPAVIALCQQYDMDPAWAVCGARVSWDGTMEWDNEKHEGSTVLVPIMDQGSRMEGKLLREMGYAEKAPVAGRFSMGSDGALTLITEYETIYSEERLWFASPNLRLRTSILKRFGGFSMASFCSEIRLGVTQPANSLEHHHHHH | soluble |
| MAHHHHHHMWFGQLVIGPPGSGKSTYVAGVEHILRQINRKLVLINLDPFVENDVYKADVNISDLVDIKKVFCDLGLGPNGTLIYCMEYLLINFDWLEEKLKEHKDHYLLIDTPGQVELYTHNDALRKIVEKMTKMNCRLTSVHIVDSTLCSDNYKYVSALLLSLCSQIHLELPHVNVFSKIDLLKYFRDDLNFPLSYYVEAQNLEQLMLYARYQNESSSGSEGVNMGDDSPSGSLNDRSSCAQSAIKQAIRNDINSGRIKNVRKNYKKFSNKFLKLNEYICETVEDYNMINFALLDIQDKYSVLKLLKIIDGANGFRFSSIYSEYSLFDTYAEAIEYDCDDIQEKIVDVSDEEKEASLSGHPPHG | not soluble |
